Results as given in US20240066131A1 (Protagonist Therapeutics, Inc., priority 2020, published 2024).
Starred links: 1 amine or outer side, 2 acyl side, 3 side chain; linkers in the order of their positions; H or OH if unused. Non-standard residues stand in square brackets, D forms with d. Groups on a side chain read outwards from the residue. Primed or numbered codes have the meaning given here. No end group written: not given here. *: point of attachment. N‑(CH2CH2C(Ph)2H)Gly = N-substituted glycine carrying a 3,3-diphenylpropyl group, O=C(CN(CCC(c1ccccc1)c1ccccc1)[*:1])[*:2]; C18 diacid = O=C(O)CCCCCCCCCCCCCCCCC(=O)*; Dip = N[C@H](C(=O)O)C(c1ccccc1)c1ccccc1; γGlu = O=C(O)[C@H](CCC(=O)[*:2])N[*:1]; N(isopentyl)Gly′ = not defined here; Palmitoyl = CCCCCCCCCCCCCCCC(=O)*; β3hF = N[C@H](CC(=O)O)Cc1ccccc1; PEG4 = NCCOCCOCCOCCOCCC(=O)O; Isovaleryl = CC(C)CC(=O)*; AEEA = NCCOCCOCC(=O)O; Ahx = NCCCCCC(=O)O; NHPr = CCCN*

T1: human ferroportin (SLC40A1) fused in frame with GFP, stably expressed in HEK293 cells (human, UniProt Q9NP59 1-571)
T1 sequence (looked up): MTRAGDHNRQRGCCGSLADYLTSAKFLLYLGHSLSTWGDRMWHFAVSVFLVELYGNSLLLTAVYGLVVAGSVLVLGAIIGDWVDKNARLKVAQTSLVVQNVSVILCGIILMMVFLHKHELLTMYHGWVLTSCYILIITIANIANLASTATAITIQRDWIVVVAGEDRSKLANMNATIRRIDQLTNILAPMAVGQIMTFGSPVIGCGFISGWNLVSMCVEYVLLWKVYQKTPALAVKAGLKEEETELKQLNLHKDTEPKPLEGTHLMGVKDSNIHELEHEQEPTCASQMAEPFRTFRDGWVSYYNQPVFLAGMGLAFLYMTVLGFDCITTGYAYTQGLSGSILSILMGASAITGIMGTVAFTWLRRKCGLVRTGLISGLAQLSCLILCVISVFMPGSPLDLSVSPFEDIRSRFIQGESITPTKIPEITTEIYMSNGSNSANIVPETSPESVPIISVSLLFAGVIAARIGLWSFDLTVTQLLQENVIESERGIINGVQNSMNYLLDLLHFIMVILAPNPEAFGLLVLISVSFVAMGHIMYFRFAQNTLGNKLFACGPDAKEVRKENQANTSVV


Key:
[1] = molecular target: T1, human ferroportin (SLC40A1) fused in …; test: cell-based or functional assay
[2] = molecular target: T1, human ferroportin (SLC40A1) fused in …; test: cell-based or functional assay; remark: listed apart in the source

FPN IC50 [1] [nM] | FPN EC50 [2] [nM] | Binder
482 | – | Isovaleryl-LTH[Dip]PK([AEEA-AEEA-γGlu-C18 diacid])[β3hF]-NH2 (SMILES CC(C)CC(=O)N[C@@H](CC(C)C)C(=O)N[C@H](C(=O)N[C@@H](Cc1c[nH]cn1)C(=O)N[C@H](C(=O)N1CCC[C@H]1C(=O)N[C@@H](CCCCNC(=O)COCCOCCNC(=O)COCCOCCNC(=O)CC[C@H](NC(=O)CCCCCCCCCCCCCCCCC(=O)O)C(=O)O)C(=O)N[C@H](CC(N)=O)Cc1ccccc1)C(c1ccccc1)c1ccccc1)[C@@H](C)O) [Isovaleric Acid-L-T-H-[Dpa]-P-[Lys(1PEG2_1PEG2_IsoGlu_C18_Diacid)]-[bhPhe]-NH2]
> 3000 | – | Ac-K([Ahx-Palmitoyl])TH[Dip]PAI[dK][β3hF]-NH2 (SMILES CCCCCCCCCCCCCCCC(=O)NCCCCCC(=O)NCCCC[C@H](NC(C)=O)C(=O)N[C@H](C(=O)N[C@@H](Cc1c[nH]cn1)C(=O)N[C@H](C(=O)N1CCC[C@H]1C(=O)N[C@@H](C)C(=O)N[C@H](C(=O)N[C@H](CCCCN)C(=O)N[C@H](CC(N)=O)Cc1ccccc1)[C@@H](C)CC)C(c1ccccc1)c1ccccc1)[C@@H](C)O) [Ac-[Lys(Ahx_Palm)]-T-H-[Dpa]-P-A-I-[(D)Lys]-[bhPhe]-NH2]
367 | – | XETHXPXX (N-term Isovaleric Acid; Dpa4; Lys(1PEG2_1PEG2_Ahx_C18_Diacid)6; bhPhe7; C-term NH2) [Isovaleric Acid-E-T-H-[Dpa]-P-[Lys(1PEG2_1PEG2_Ahx_C18_Diacid)]-[bhPhe]-NH2]
– | > 3000 | Isovaleryl-ET[N‑(CH2CH2-imidazol4-yl)Gly][Dip]PAIK([Ahx-Palmitoyl])[β3hF]-NH2 [Isovaleric Acid-E-T-[N-(CH2CH2-imidazol4-yl)Gly]-[Dpa]-P-A-I-[Lys(Ahx_Palm)]-[bhPhe]-NH2]
342 | – | Isovaleryl-LTH[Dip]PLIK([Ahx-Palmitoyl])L-NH2 (SMILES CCCCCCCCCCCCCCCC(=O)NCCCCCC(=O)NCCCC[C@H](NC(=O)[C@@H](NC(=O)[C@H](CC(C)C)NC(=O)[C@@H]1CCCN1C(=O)[C@@H](NC(=O)[C@H](Cc1c[nH]cn1)NC(=O)[C@@H](NC(=O)[C@H](CC(C)C)NC(=O)CC(C)C)[C@@H](C)O)C(c1ccccc1)c1ccccc1)[C@@H](C)CC)C(=O)N[C@@H](CC(C)C)C(N)=O) [Isovaleric Acid-L-T-H-[Dpa]-P-L-I-[Lys(Ahx_Palm)]-L-NH2]
1270 | – | Isovaleryl-LTH[Dip]PLIK([Ahx-Palmitoyl])[β3hF]-NH2 (SMILES CCCCCCCCCCCCCCCC(=O)NCCCCCC(=O)NCCCC[C@H](NC(=O)[C@@H](NC(=O)[C@H](CC(C)C)NC(=O)[C@@H]1CCCN1C(=O)[C@@H](NC(=O)[C@H](Cc1c[nH]cn1)NC(=O)[C@@H](NC(=O)[C@H](CC(C)C)NC(=O)CC(C)C)[C@@H](C)O)C(c1ccccc1)c1ccccc1)[C@@H](C)CC)C(=O)N[C@H](CC(N)=O)Cc1ccccc1) [Isovaleric Acid-L-T-H-[Dpa]-P-L-I-[Lys(Ahx_Palm)]-[bhPhe]-NH2]
598 | – | Isovaleryl-K([Ahx-Palmitoyl])TH[Dip]PAI[dK][β3hF]-NH2 (SMILES CCCCCCCCCCCCCCCC(=O)NCCCCCC(=O)NCCCC[C@H](NC(=O)CC(C)C)C(=O)N[C@H](C(=O)N[C@@H](Cc1c[nH]cn1)C(=O)N[C@H](C(=O)N1CCC[C@H]1C(=O)N[C@@H](C)C(=O)N[C@H](C(=O)N[C@H](CCCCN)C(=O)N[C@H](CC(N)=O)Cc1ccccc1)[C@@H](C)CC)C(c1ccccc1)c1ccccc1)[C@@H](C)O) [Isovaleric Acid-[Lys(Ahx_Palm)]-T-H-[Dpa]-P-A-I-[(D)Lys]-[bhPhe]-NH2; 1]
– | 13 | Isovaleryl-ETH[Dip]PA[N(isopentyl)Gly′]K([Ahx-Palmitoyl])[β3hF]-NH2 [Isovaleric Acid-E-T-H-[Dpa]-P-A-[N-(isopenty1)Gly]-[Lys(Ahx_Palm)]-[bhPhe]-NH2]
– | 31.9 | Isovaleryl-ETH[Dip]PAIK([Ahx-Palmitoyl])[N‑(CH2CH2Ph)Gly]-NH2 [Isovaleric Acid-E-T-H-[Dpa]-P-A-I-[Lys(Ahx_Palm)]-[N-(CH2CH2Ph)Gly]-NH2]
1580 | – | Isovaleryl-LTH[Dip]PAIK([Ahx-Palmitoyl])[β3hF]-NH2 (SMILES CCCCCCCCCCCCCCCC(=O)NCCCCCC(=O)NCCCC[C@H](NC(=O)[C@@H](NC(=O)[C@H](C)NC(=O)[C@@H]1CCCN1C(=O)[C@@H](NC(=O)[C@H](Cc1c[nH]cn1)NC(=O)[C@@H](NC(=O)[C@H](CC(C)C)NC(=O)CC(C)C)[C@@H](C)O)C(c1ccccc1)c1ccccc1)[C@@H](C)CC)C(=O)N[C@H](CC(N)=O)Cc1ccccc1) [Isovaleric Acid-L-T-H-[Dpa]-P-A-I-[Lys(Ahx_Palm)]-[bhPhe]-NH2]
86.8 | – | XETHXPXX (not fully specified; N-term Isovaleric Acid; Dpa4; d[Lys(1PEG2_1PEG2_Ahx_C18_Diacid)]6; bhPhe7; C-term NH2) [Isovaleric Acid-E-T-H-[Dpa]-P-d[Lys(1PEG2_1PEG2_Ahx_C18_Diacid)]-[bhPhe]-NH2]
448 | – | XETHXPXX (N-term Isovaleric Acid; Dpa4; Lys(1PEG2_1PEG2_IsoGlu_C18_Diacid)6; C-term N_Butyl_Phe) [Isovaleric Acid-E-T-H-[Dpa]-P-[Lys(1PEG2_1PEG2_IsoGlu_C18_Diacid)]-N_Butyl_Phe]
– | > 3000 | Isovaleryl-ETH[N‑(CH2CH2C(Ph)2H)Gly]PAIK([Ahx-Palmitoyl])[β3hF]-NH2 [Isovaleric Acid-E-T-H-[N-(CH2CH2C(Ph)2H)Gly]-P-A-I-[Lys(Ahx_Palm)]-[bhPhe]-NH2]
82 | – | Isovaleryl-ETH[Dip]PAIK([Ahx-Palmitoyl])L-NH2 (SMILES CCCCCCCCCCCCCCCC(=O)NCCCCCC(=O)NCCCC[C@H](NC(=O)[C@@H](NC(=O)[C@H](C)NC(=O)[C@@H]1CCCN1C(=O)[C@@H](NC(=O)[C@H](Cc1c[nH]cn1)NC(=O)[C@@H](NC(=O)[C@H](CCC(=O)O)NC(=O)CC(C)C)[C@@H](C)O)C(c1ccccc1)c1ccccc1)[C@@H](C)CC)C(=O)N[C@@H](CC(C)C)C(N)=O) [Isovaleric Acid-E-T-H-[Dpa]-P-A-I-[Lys(Ahx_Palm)]-L-NH2]
– | 65.9 | Isovaleryl-ETH[Dip]P[N(Et)Gly]IK([Ahx-Palmitoyl])[β3hF]-NH2 [Isovaleric Acid-E-T-H-[Dpa]-P-[N-(Et)Gly]-I-[Lys(Ahx_Palm)]-[bhPhe]-NH2]
1490 | – | XETHXPXX (N-term Isovaleric Acid; Dpa4; d[Lys(1PEG2_1PEG2_IsoGlu_C18_Diacid)]6; bhPhe7; C-term NH2) [Isovaleric Acid-E-T-H-[Dpa]-P-d[Lys(1PEG2_1PEG2_IsoGlu_C18_Diacid)]-[bhPhe]-NH2]
470 | – | XETHXPXX (N-term Isovaleric Acid; Dpa4; Lys(1PEG2_1PEG2_IsoGlu_C18_Diacid)6; C-term Propyl_Amine) [Isovaleric Acid-E-T-H-[Dpa]-P-[Lys(1PEG2_1PEG2_IsoGlu_C18_Diacid)]-Propyl_Amine]
18.3 | – | Isovaleryl-LTH[Dip]PK([Ahx-Palmitoyl])[N_Ethyl_Phe] [Isovaleric Acid-L-T-H-[Dpa]-P-[Lys(Ahx_Palm)]-N_Ethyl_Phe]
654 | – | Isovaleryl-K([Ahx-Palmitoyl])TH[Dip]PAI[dK][β3hF]-NH2 (SMILES CCCCCCCCCCCCCCCC(=O)NCCCCCC(=O)NCCCC[C@H](NC(=O)CC(C)C)C(=O)N[C@H](C(=O)N[C@@H](Cc1c[nH]cn1)C(=O)N[C@H](C(=O)N1CCC[C@H]1C(=O)N[C@@H](C)C(=O)N[C@H](C(=O)N[C@H](CCCCN)C(=O)N[C@H](CC(N)=O)Cc1ccccc1)[C@@H](C)CC)C(c1ccccc1)c1ccccc1)[C@@H](C)O) [Isovaleric Acid-[Lys(Ahx_Palm)]-T-H-[Dpa]-P-A-I-[(D)Lys]-[bhPhe]-NH2; 2]
37.4 | – | Isovaleryl-ETH[Dip]PLIK([Ahx-Palmitoyl])L-NH2 (SMILES CCCCCCCCCCCCCCCC(=O)NCCCCCC(=O)NCCCC[C@H](NC(=O)[C@@H](NC(=O)[C@H](CC(C)C)NC(=O)[C@@H]1CCCN1C(=O)[C@@H](NC(=O)[C@H](Cc1c[nH]cn1)NC(=O)[C@@H](NC(=O)[C@H](CCC(=O)O)NC(=O)CC(C)C)[C@@H](C)O)C(c1ccccc1)c1ccccc1)[C@@H](C)CC)C(=O)N[C@@H](CC(C)C)C(N)=O) [Isovaleric Acid-E-T-H-[Dpa]-P-L-I-[Lys(Ahx_Palm)]-L-NH2]
169 | – | Isovaleryl-LTH[Dip]PAIK([Ahx-Palmitoyl])L-NH2 (SMILES CCCCCCCCCCCCCCCC(=O)NCCCCCC(=O)NCCCC[C@H](NC(=O)[C@@H](NC(=O)[C@H](C)NC(=O)[C@@H]1CCCN1C(=O)[C@@H](NC(=O)[C@H](Cc1c[nH]cn1)NC(=O)[C@@H](NC(=O)[C@H](CC(C)C)NC(=O)CC(C)C)[C@@H](C)O)C(c1ccccc1)c1ccccc1)[C@@H](C)CC)C(=O)N[C@@H](CC(C)C)C(N)=O) [Isovaleric Acid-L-T-H-[Dpa]-P-A-I-[Lys(Ahx_Palm)]-L-NH2]
– | 32.7 | Isovaleryl-ETH[Dip]PAIK([PEG4-Palmitoyl])[β3hF]-NH2 (SMILES CCCCCCCCCCCCCCCC(=O)NCCOCCOCCOCCOCCC(=O)NCCCC[C@H](NC(=O)[C@@H](NC(=O)[C@H](C)NC(=O)[C@@H]1CCCN1C(=O)[C@@H](NC(=O)[C@H](Cc1c[nH]cn1)NC(=O)[C@@H](NC(=O)[C@H](CCC(=O)O)NC(=O)CC(C)C)[C@@H](C)O)C(c1ccccc1)c1ccccc1)[C@@H](C)CC)C(=O)N[C@H](CC(N)=O)Cc1ccccc1) [Isovaleric Acid-E-T-H-[Dpa]-P-A-I-[Lys(2PEG4_Palm)]-[bhPhe]-NH2]
408 | – | XETHXPXX (N-term Isovaleric Acid; Dpa4; Lys(1PEG2_1PEG2_IsoGlu_C18_Diacid)6; C-term N_Ethyl_Phe) [Isovaleric Acid-E-T-H-[Dpa]-P-[Lys(1PEG2_1PEG2_IsoGlu_C18_Diacid)]-N_Ethyl_Phe]
394 | – | Isovaleryl-LTH[Dip]P[dK]([AEEA-AEEA-γGlu-C18 diacid])[β3hF]-NH2 (SMILES CC(C)CC(=O)N[C@@H](CC(C)C)C(=O)N[C@H](C(=O)N[C@@H](Cc1c[nH]cn1)C(=O)N[C@H](C(=O)N1CCC[C@H]1C(=O)N[C@H](CCCCNC(=O)COCCOCCNC(=O)COCCOCCNC(=O)CC[C@H](NC(=O)CCCCCCCCCCCCCCCCC(=O)O)C(=O)O)C(=O)N[C@H](CC(N)=O)Cc1ccccc1)C(c1ccccc1)c1ccccc1)[C@@H](C)O) [Isovaleric Acid-L-T-H-[Dpa]-P-d[Lys(1PEG2_1PEG2_IsoGlu_C18_Diacid)]-[bhPhe]-NH2]
87.3 | – | Isovaleryl-LTH[Dip]PK([Ahx-Palmitoyl])-NHPr [Isovaleric Acid-L-T-H-[Dpa]-P-[Lys(Ahx_Palm)]-Propyl_Amine]
1690 | – | XETHXPXX (N-term Isovaleric Acid; Dpa4; Lys(1PEG2_1PEG2_IsoGlu_C18_Diacid)6; bhPhe7; C-term NH2) [Isovaleric Acid-E-T-H-[Dpa]-P-[Lys(1PEG2_1PEG2_IsoGlu_C18_Diacid)]-[bhPhe]-NH2]
